Target: PrP^Sc, pathogenic form of the human prion protein (from CJD brain homogenate) (human) (UniProt P04156)

3F4 antibody
ave (RLU), vCJD BH: 56.3 RLU
